Among the data in patent publication US6482925 are fold increase of binding against wild-type LAG-3 and Adhesion (relative to wild-type LAG-3) values, retold here.

The labels stand for the following.
B1: LAG-3 mutant R75E (receptor)
chain: LQPGAEVPVVWAQEGAPAQLPCSPTIPLQDLSLLRRAGVTWQHQPDSGPPAAAPGHPLAPGPHPAAPSSWGPRPERYTVLSVGPGGLRSGRLPLQPRVQLDERGRQRGDFSLWLRPARRADAGEYRAAVHLRDRALSCRLRLRLGQASMTASPPGSLRASDWVILNCSFSRPDRPASVHWFRNRGQGRVPVRESPHHHLAESFLFLPQVSPMDSGPWGCILTYRDGFNVSIMYNLTVLGLEPPTPLTVYAGAGSRVGLPCRLPAGVGTRSFLTAKWTPPGGGPDLLVTGDNGDFTLRLEDVSQAQAGTYTCHIHLQEQQLNATVTLAIITVTPKSFGSPGSLGKLLCEVTPVSGQERFVWSSLDTPSQRSFSGPWLEAQEAQLLSQPWQCQLYQGERLLGAAVYFTELSSPGAQRSGRAPGALPAGHLLLFLTLGVLSLLLLVTGAFGFHLWRRQWRPRRFSALEQGIHPRRLRAR
B2: LAG-3 mutant H63F (receptor)
chain: LQPGAEVPVVWAQEGAPAQLPCSPTIPLQDLSLLRRAGVTWQHQPDSGPPAAAPGHPLAPGPFPAAPSSWGPRPRRYTVLSVGPGGLRSGRLPLQPRVQLDERGRQRGDFSLWLRPARRADAGEYRAAVHLRDRALSCRLRLRLGQASMTASPPGSLRASDWVILNCSFSRPDRPASVHWFRNRGQGRVPVRESPHHHLAESFLFLPQVSPMDSGPWGCILTYRDGFNVSIMYNLTVLGLEPPTPLTVYAGAGSRVGLPCRLPAGVGTRSFLTAKWTPPGGGPDLLVTGDNGDFTLRLEDVSQAQAGTYTCHIHLQEQQLNATVTLAIITVTPKSFGSPGSLGKLLCEVTPVSGQERFVWSSLDTPSQRSFSGPWLEAQEAQLLSQPWQCQLYQGERLLGAAVYFTELSSPGAQRSGRAPGALPAGHLLLFLTLGVLSLLLLVTGAFGFHLWRRQWRPRRFSALEQGIHPRRLRAR
B3: LAG-3 double mutant D133A/R134A (receptor)
chain: LQPGAEVPVVWAQEGAPAQLPCSPTIPLQDLSLLRRAGVTWQHQPDSGPPAAAPGHPLAPGPHPAAPSSWGPRPRRYTVLSVGPGGLRSGRLPLQPRVQLDERGRQRGDFSLWLRPARRADAGEYRAAVHLRAAALSCRLRLRLGQASMTASPPGSLRASDWVILNCSFSRPDRPASVHWFRNRGQGRVPVRESPHHHLAESFLFLPQVSPMDSGPWGCILTYRDGFNVSIMYNLTVLGLEPPTPLTVYAGAGSRVGLPCRLPAGVGTRSFLTAKWTPPGGGPDLLVTGDNGDFTLRLEDVSQAQAGTYTCHIHLQEQQLNATVTLAIITVTPKSFGSPGSLGKLLCEVTPVSGQERFVWSSLDTPSQRSFSGPWLEAQEAQLLSQPWQCQLYQGERLLGAAVYFTELSSPGAQRSGRAPGALPAGHLLLFLTLGVLSLLLLVTGAFGFHLWRRQWRPRRFSALEQGIHPRRLRAR
B4: LAG-3 mutant D109E (receptor)
chain: LQPGAEVPVVWAQEGAPAQLPCSPTIPLQDLSLLRRAGVTWQHQPDSGPPAAAPGHPLAPGPHPAAPSSWGPRPRRYTVLSVGPGGLRSGRLPLQPRVQLDERGRQRGEFSLWLRPARRADAGEYRAAVHLRDRALSCRLRLRLGQASMTASPPGSLRASDWVILNCSFSRPDRPASVHWFRNRGQGRVPVRESPHHHLAESFLFLPQVSPMDSGPWGCILTYRDGFNVSIMYNLTVLGLEPPTPLTVYAGAGSRVGLPCRLPAGVGTRSFLTAKWTPPGGGPDLLVTGDNGDFTLRLEDVSQAQAGTYTCHIHLQEQQLNATVTLAIITVTPKSFGSPGSLGKLLCEVTPVSGQERFVWSSLDTPSQRSFSGPWLEAQEAQLLSQPWQCQLYQGERLLGAAVYFTELSSPGAQRSGRAPGALPAGHLLLFLTLGVLSLLLLVTGAFGFHLWRRQWRPRRFSALEQGIHPRRLRAR
B5: LAG-3 mutant D225L (receptor)
chain: LQPGAEVPVVWAQEGAPAQLPCSPTIPLQDLSLLRRAGVTWQHQPDSGPPAAAPGHPLAPGPHPAAPSSWGPRPRRYTVLSVGPGGLRSGRLPLQPRVQLDERGRQRGDFSLWLRPARRADAGEYRAAVHLRDRALSCRLRLRLGQASMTASPPGSLRASDWVILNCSFSRPDRPASVHWFRNRGQGRVPVRESPHHHLAESFLFLPQVSPMDSGPWGCILTYRLGFNVSIMYNLTVLGLEPPTPLTVYAGAGSRVGLPCRLPAGVGTRSFLTAKWTPPGGGPDLLVTGDNGDFTLRLEDVSQAQAGTYTCHIHLQEQQLNATVTLAIITVTPKSFGSPGSLGKLLCEVTPVSGQERFVWSSLDTPSQRSFSGPWLEAQEAQLLSQPWQCQLYQGERLLGAAVYFTELSSPGAQRSGRAPGALPAGHLLLFLTLGVLSLLLLVTGAFGFHLWRRQWRPRRFSALEQGIHPRRLRAR
B6: LAG-3 mutant H63A (receptor)
chain: LQPGAEVPVVWAQEGAPAQLPCSPTIPLQDLSLLRRAGVTWQHQPDSGPPAAAPGHPLAPGPAPAAPSSWGPRPRRYTVLSVGPGGLRSGRLPLQPRVQLDERGRQRGDFSLWLRPARRADAGEYRAAVHLRDRALSCRLRLRLGQASMTASPPGSLRASDWVILNCSFSRPDRPASVHWFRNRGQGRVPVRESPHHHLAESFLFLPQVSPMDSGPWGCILTYRDGFNVSIMYNLTVLGLEPPTPLTVYAGAGSRVGLPCRLPAGVGTRSFLTAKWTPPGGGPDLLVTGDNGDFTLRLEDVSQAQAGTYTCHIHLQEQQLNATVTLAIITVTPKSFGSPGSLGKLLCEVTPVSGQERFVWSSLDTPSQRSFSGPWLEAQEAQLLSQPWQCQLYQGERLLGAAVYFTELSSPGAQRSGRAPGALPAGHLLLFLTLGVLSLLLLVTGAFGFHLWRRQWRPRRFSALEQGIHPRRLRAR
B7: LAG-3 mutant H56F (receptor)
chain: LQPGAEVPVVWAQEGAPAQLPCSPTIPLQDLSLLRRAGVTWQHQPDSGPPAAAPGFPLAPGPHPAAPSSWGPRPRRYTVLSVGPGGLRSGRLPLQPRVQLDERGRQRGDFSLWLRPARRADAGEYRAAVHLRDRALSCRLRLRLGQASMTASPPGSLRASDWVILNCSFSRPDRPASVHWFRNRGQGRVPVRESPHHHLAESFLFLPQVSPMDSGPWGCILTYRDGFNVSIMYNLTVLGLEPPTPLTVYAGAGSRVGLPCRLPAGVGTRSFLTAKWTPPGGGPDLLVTGDNGDFTLRLEDVSQAQAGTYTCHIHLQEQQLNATVTLAIITVTPKSFGSPGSLGKLLCEVTPVSGQERFVWSSLDTPSQRSFSGPWLEAQEAQLLSQPWQCQLYQGERLLGAAVYFTELSSPGAQRSGRAPGALPAGHLLLFLTLGVLSLLLLVTGAFGFHLWRRQWRPRRFSALEQGIHPRRLRAR
B8: LAG-3 mutant Q13A (receptor)
chain: LQPGAEVPVVWAAEGAPAQLPCSPTIPLQDLSLLRRAGVTWQHQPDSGPPAAAPGHPLAPGPHPAAPSSWGPRPRRYTVLSVGPGGLRSGRLPLQPRVQLDERGRQRGDFSLWLRPARRADAGEYRAAVHLRDRALSCRLRLRLGQASMTASPPGSLRASDWVILNCSFSRPDRPASVHWFRNRGQGRVPVRESPHHHLAESFLFLPQVSPMDSGPWGCILTYRDGFNVSIMYNLTVLGLEPPTPLTVYAGAGSRVGLPCRLPAGVGTRSFLTAKWTPPGGGPDLLVTGDNGDFTLRLEDVSQAQAGTYTCHIHLQEQQLNATVTLAIITVTPKSFGSPGSLGKLLCEVTPVSGQERFVWSSLDTPSQRSFSGPWLEAQEAQLLSQPWQCQLYQGERLLGAAVYFTELSSPGAQRSGRAPGALPAGHLLLFLTLGVLSLLLLVTGAFGFHLWRRQWRPRRFSALEQGIHPRRLRAR
B9: LAG-3 mutant R107K (receptor)
chain: LQPGAEVPVVWAQEGAPAQLPCSPTIPLQDLSLLRRAGVTWQHQPDSGPPAAAPGHPLAPGPHPAAPSSWGPRPRRYTVLSVGPGGLRSGRLPLQPRVQLDERGRQKGDFSLWLRPARRADAGEYRAAVHLRDRALSCRLRLRLGQASMTASPPGSLRASDWVILNCSFSRPDRPASVHWFRNRGQGRVPVRESPHHHLAESFLFLPQVSPMDSGPWGCILTYRDGFNVSIMYNLTVLGLEPPTPLTVYAGAGSRVGLPCRLPAGVGTRSFLTAKWTPPGGGPDLLVTGDNGDFTLRLEDVSQAQAGTYTCHIHLQEQQLNATVTLAIITVTPKSFGSPGSLGKLLCEVTPVSGQERFVWSSLDTPSQRSFSGPWLEAQEAQLLSQPWQCQLYQGERLLGAAVYFTELSSPGAQRSGRAPGALPAGHLLLFLTLGVLSLLLLVTGAFGFHLWRRQWRPRRFSALEQGIHPRRLRAR
B10: LAG-3 mutant R88A (receptor)
chain: LQPGAEVPVVWAQEGAPAQLPCSPTIPLQDLSLLRRAGVTWQHQPDSGPPAAAPGHPLAPGPHPAAPSSWGPRPRRYTVLSVGPGGLASGRLPLQPRVQLDERGRQRGDFSLWLRPARRADAGEYRAAVHLRDRALSCRLRLRLGQASMTASPPGSLRASDWVILNCSFSRPDRPASVHWFRNRGQGRVPVRESPHHHLAESFLFLPQVSPMDSGPWGCILTYRDGFNVSIMYNLTVLGLEPPTPLTVYAGAGSRVGLPCRLPAGVGTRSFLTAKWTPPGGGPDLLVTGDNGDFTLRLEDVSQAQAGTYTCHIHLQEQQLNATVTLAIITVTPKSFGSPGSLGKLLCEVTPVSGQERFVWSSLDTPSQRSFSGPWLEAQEAQLLSQPWQCQLYQGERLLGAAVYFTELSSPGAQRSGRAPGALPAGHLLLFLTLGVLSLLLLVTGAFGFHLWRRQWRPRRFSALEQGIHPRRLRAR
B11: wild-type LAG-3 (lymphocyte activation gene 3 protein) (receptor)
chain: LQPGAEVPVVWAQEGAPAQLPCSPTIPLQDLSLLRRAGVTWQHQPDSGPPAAAPGHPLAPGPHPAAPSSWGPRPRRYTVLSVGPGGLRSGRLPLQPRVQLDERGRQRGDFSLWLRPARRADAGEYRAAVHLRDRALSCRLRLRLGQASMTASPPGSLRASDWVILNCSFSRPDRPASVHWFRNRGQGRVPVRESPHHHLAESFLFLPQVSPMDSGPWGCILTYRDGFNVSIMYNLTVLGLEPPTPLTVYAGAGSRVGLPCRLPAGVGTRSFLTAKWTPPGGGPDLLVTGDNGDFTLRLEDVSQAQAGTYTCHIHLQEQQLNATVTLAIITVTPKSFGSPGSLGKLLCEVTPVSGQERFVWSSLDTPSQRSFSGPWLEAQEAQLLSQPWQCQLYQGERLLGAAVYFTELSSPGAQRSGRAPGALPAGHLLLFLTLGVLSLLLLVTGAFGFHLWRRQWRPRRFSALEQGIHPRRLRAR

One assay has as its target MHC class II molecules on Daudi B cells. Nature of the assay: 51Cr Daudi cell adhesion to transfected Cos-7 cells.
With B1, the fold increase of binding against wild-type LAG-3 was above 3 fold.

The next assay shares this target. Description: 51Cr Daudi cell adhesion to transfected Cos-7 cells; cpm relative to wild-type, background not subtracted.
The molecule B1 yielded an Adhesion (relative to wild-type LAG-3) of 4.1.

As for B2, the Adhesion (relative to wild-type LAG-3) is 0.91.

Consider B3, for which the Adhesion (relative to wild-type LAG-3) was 0.78.

For the molecule B4, the Adhesion (relative to wild-type LAG-3) amounted to 0.18.

Molecule B5 came in with an Adhesion (relative to wild-type LAG-3) of 0.89.

As to B6, the Adhesion (relative to wild-type LAG-3) is 0.83.

On to B7, for which the Adhesion (relative to wild-type LAG-3) was 0.89.

On to B8, for which the Adhesion (relative to wild-type LAG-3) was determined as 0.92.

With B9, the Adhesion (relative to wild-type LAG-3) is 1.02.

B10: the Adhesion (relative to wild-type LAG-3) is 0.18.

As for B11, the Adhesion (relative to wild-type LAG-3) is 1.
